{"source": "paper PMC5286830", "about": "“Prokaryotic ubiquitin-like protein remains intrinsically disordered when covalently attached to proteasomal target proteins” (BMC Structural Biology, 2017)", "binders": {"B1": {"name": "fluorescein-labeled CgluPup-Q30C variant (free) (natural protein, Corynebacterium glutamicum, UniProt Q8NQE0 1-64, looked up)", "chain": "MNAKQTQIMGGGGRDEDNAEDSAQASGQVC(fluorescein‑5‑maleimide)INTEGVDSLLDEIDGLLENNAEEFVRSYVQKGGE", "notes": "prokaryotic ubiquitin-like protein Pup, Corynebacterium glutamicum; also called CgluPup-Q30C-Fluorescein; free CgluPup-Q30C"}}, "biological_target": "T1, Pup ligase CgluPafA-His6 (proteasome accessory factor A from Corynebacterium glutamicum) (Corynebacterium glutamicum, UniProt Q8NQE1 1-482)", "T1 construct": "Pup ligase PafA, Corynebacterium glutamicum; The anisotropy methods call the titrated protein only 'CgluPafA'", "T1 sequence (looked up)": "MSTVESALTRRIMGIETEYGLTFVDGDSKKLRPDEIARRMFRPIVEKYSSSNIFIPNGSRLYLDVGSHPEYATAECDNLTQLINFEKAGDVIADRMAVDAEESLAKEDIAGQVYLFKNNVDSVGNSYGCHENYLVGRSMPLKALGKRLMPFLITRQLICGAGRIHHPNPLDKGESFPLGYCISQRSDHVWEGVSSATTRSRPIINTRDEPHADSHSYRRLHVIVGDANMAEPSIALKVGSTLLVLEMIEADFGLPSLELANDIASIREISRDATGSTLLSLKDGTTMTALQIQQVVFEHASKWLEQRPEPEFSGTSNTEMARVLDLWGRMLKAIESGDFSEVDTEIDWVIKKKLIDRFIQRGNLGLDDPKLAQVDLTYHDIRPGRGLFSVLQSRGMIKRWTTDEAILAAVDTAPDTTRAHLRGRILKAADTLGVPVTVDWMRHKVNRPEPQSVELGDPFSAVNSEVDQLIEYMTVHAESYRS", "test": "fluorescence polarisation; fluorescence anisotropy on a Synergy BioTek plate reader; 12.5 nM CgluPup-Q30C-Fluorescein labeled substrate or free CgluPup with 0 to 30 uM CgluPafA; 50 mM Tris pH 8.04 (RT), 150 mM NaCl, 0.5 mM EDTA, 0.001% Tween-20", "conditions": "both partners purified"}
{"binder": "B1", "values": [{"measurement": "Kd", "result": "1820 ± 180", "unit": "nM"}]}
